Results on four molecules are retold here after patent publication US20240209341A1 (University of California, published 2024).

One experiment concerns the target T1, human APOA1 (human, UniProt P02647 25-267).
T1 construct: also called ApoA-I
Description: ELISA, AIBP-coated plates incubated with 5 µg/ml human APOA1. The procedure: ELISA binding assays. To assess AIBP-TLR4 binding, 96-well plates were coated with 5 μg/ml of eTLR4, washed three times with PBS containing 0.05% Tween-20, blocked with PBS containing 1% BSA, and incubated with wtAIBP or mutAIBP, followed by 2 μg/ml of a biotinylated BE-1 anti-AIBP monoclonal antibody. To assess AIBP-APOA1 binding, plates were coated with BSA, wtAIBP or mutAIBP, washed, blocked, and incubated with 5 μg/ml of human APOA1 (a gift from Dmitri Sviridov, Baker Heart and Diabetes Institute, Melbourne, Australia), followed by a biotinylated anti-APOA1 antibody (Academy Bio-Medical Company, RRID:AB_1238781). In both assays, neutravidin-AP was added and incubated for 45 minutes at room temperature, followed by LumiPhos 530 (Lumigen) for 90 min, and luminescence was measured using a luminescence plate reader (BioTek, Winooski, Vermont).
(§1) FIG. 9: Identifies sequence motifs that contribute to AIBP binding to TLR4: FIG. 9. Identification of the domain in the AIBP molecule responsible for TLR4 binding. A, Human AIBP: signal peptide (aa 1-24), previously uncharacterized N-terminal domain (aa 25-51), and YjeF_N domain (aa 52-288). […] IP of eTLR4 and wtAIBP or mutAIBP in a test tube with an anti-AIBP antibody; blot and quantification from 3 independent experiments (D). […]
A general note: ELISA stands for enzyme-linked immunosorbent assay.

Experiment [1] addresses T2, recombinant TLR4 ectodomain, His-tagged (Sino Biological) (human, UniProt O00206 24-631).
T2 construct: extracellular domain; Bought protein; also called eTLR4; eTLR4-His; not shown: His-tag
Kind of experiment: pull-down with BE-1 anti-AIBP antibody, immunoblot. The procedure: (§2) Co-immunoprecipitation assays for TLR4 binding. Pull down assay of eTLR4 and wtAIBP or mutAIBP in test tube was performed by mixing 1 μg of eTLR4 (Sino Biological) and AIBP in PBS containing 0.5% Triton X-100 and incubating for 1 hour at room temperature. Samples were precleared by adding Protein A/G Sepharose beads at room temperature for 30 min, followed by addition of 1 μg of BE-1 monoclonal anti-AIBP antibody and incubation for 2 hours. Protein A/G Sepharose beads were added and incubated for an additional one hour, followed by 5 washes with PBS containing 0.5% Triton X-100 and immunoblot of samples.
as §1, with “52-288). B, Flag-tagged deletion mutants of human AIBP were co-expressed in HEK293 cells with the Flag-tagged TLR4 ectodomain (eTLR4). Cell lysates were immunoprecipitated (IP) with an anti-TLR4 antibody and immunoblotted (IB) with an anti-Flag antibody.” for “52-288).”

The target of experiment [2] is T2, recombinant TLR4 ectodomain, His-tagged …. Kind of experiment: co-immunoprecipitation with recombinant ectodomain of TLR4; proteins from E. coli.
For experiment [3] the target is unchanged. Kind of experiment: test-tube co-IP with anti-TLR4 antibody, immunoblot with anti-His antibody. The text has this: FIG. 9: Identifies sequence motifs that contribute to AIBP binding to TLR4: FIG. 9. Identification of the domain in the AIBP molecule responsible for TLR4 binding. A, Human AIBP: signal peptide (aa 1-24), previously uncharacterized N-terminal domain (aa 25-51), and YjeF_N domain (aa 52-288). B, Flag-tagged deletion mutants of human AIBP were co-expressed in HEK293 cells with the Flag-tagged TLR4 ectodomain (eTLR4). Cell lysates were immunoprecipitated (IP) with an anti-TLR4 antibody and immunoblotted (IB) with an anti-Flag antibody. C, His-tagged human (hu), mouse (mo) and zebrafish (zf) AIBP, all lacking the signal peptide, expressed in a baculovirus/insect cell system, were combined in a test-tube with eTLR4-His, followed by IP with an anti-TLR4 antibody and IB with an anti-His antibody. D-H, Binding of His-tagged wild type (wt, 25-288 aa) and the deletion mutant (mut, 52-288 aa) human AIBP to eTLR4, APOA1 and microglia. IP of eTLR4 and wtAIBP or mutAIBP in a test tube with an anti-AIBP antibody; blot and quantification from 3 independent experiments (D). ELISA with plates coated with eTLR4 and incubated with wtAIBP or mutAIBP (n=3) (E). ELISA with plates coated with BSA, wtAIBP or mutAIBP and incubated with APOA1 (F). […]
(In general: Immunoblotting shows a protein as a band on a membrane.)

Experiment [4] shares this target. Kind of experiment: pull-down with anti-AIBP antibody, western blot with anti-his antibody. The procedure:
as §2
A pulldown assay was performed using compounds as provided herein. Compounds 3, 7, 8 or 9 and other constructs described in FIGS. 13 and 14 were purified from either a baculovirus (BD Bioscience) or CHO (ExpiCHO, Expression Systems, ThermoFisher) cell expression system and incubated with TLR4 protein (Sino biological). Pull-down was performed with anti-AIBP antibody described. Bound TLR4 to AIBP was detected by western blot with an anti-his antibody (both modified AIBP and TLR4 have his-tag). Detailed experimental information is provided in example 1 as to pull down method.

T2 sequence (O00206 24-631): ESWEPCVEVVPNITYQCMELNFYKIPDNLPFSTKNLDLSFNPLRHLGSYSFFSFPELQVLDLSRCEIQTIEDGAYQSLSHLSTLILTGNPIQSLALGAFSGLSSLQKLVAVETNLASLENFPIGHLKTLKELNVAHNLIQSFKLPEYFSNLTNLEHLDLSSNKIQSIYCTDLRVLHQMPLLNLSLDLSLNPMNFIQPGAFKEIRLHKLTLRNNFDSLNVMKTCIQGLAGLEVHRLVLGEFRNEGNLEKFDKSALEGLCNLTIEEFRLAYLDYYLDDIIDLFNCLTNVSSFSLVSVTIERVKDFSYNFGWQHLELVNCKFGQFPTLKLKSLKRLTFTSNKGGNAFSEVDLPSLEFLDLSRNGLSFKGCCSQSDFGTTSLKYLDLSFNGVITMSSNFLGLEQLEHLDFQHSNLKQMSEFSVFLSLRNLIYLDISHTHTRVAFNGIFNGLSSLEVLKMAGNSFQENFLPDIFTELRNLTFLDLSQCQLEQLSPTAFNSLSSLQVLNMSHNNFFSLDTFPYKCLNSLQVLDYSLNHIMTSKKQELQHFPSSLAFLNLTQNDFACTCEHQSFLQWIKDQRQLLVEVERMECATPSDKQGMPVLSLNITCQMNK
T1 sequence (P02647 25-267 limits assumed): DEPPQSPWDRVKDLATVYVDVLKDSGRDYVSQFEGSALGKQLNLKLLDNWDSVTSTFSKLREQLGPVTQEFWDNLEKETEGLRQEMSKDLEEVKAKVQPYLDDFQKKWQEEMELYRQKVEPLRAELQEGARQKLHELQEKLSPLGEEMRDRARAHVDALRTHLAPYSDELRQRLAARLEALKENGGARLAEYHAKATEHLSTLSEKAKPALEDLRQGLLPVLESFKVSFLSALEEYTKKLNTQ

B1: His-tagged deletion mutant (mut, 52-288 aa) human AIBP (other)
chain: MASTVVKYLSQEEAQAVDQELFNEYQFSVDQLMELAGLSCATAIAKAYPPTSMSRSPPTVLVICGPGNNGGDGLVCARHLKLFGYEPTIYYPKRPNKPLFTALVTQCQKMDIPFLGEMPAEPMTIDELYELVVDAIFGFSFKGDVREPFHSILSVLKGLTVPIASIDIPSGWDVEKGNAGGIQPDLLISLTAPKKSATQFTGRYHYLGGRFVPPALEKKYQLNLPPYPDTECVYRLQ
notes: Baculovirus/insect cell expression, pAcHLT-C vector; also called mutAIBP; mut AIBP; not shown: N-terminal His-tag of the pAcHLT-C vector
For the molecule B1, the binding result was “binds” with human APOA1 and “no binding” in experiment [1].

B2: d51 AIBP-his (expressed in E. coli) (other)
chain: B1 chain
notes: not shown: his tag, read from the name as C-terminal
Take B2: the binding result in experiment [2] was “no binding”.

B3: His-tagged zebrafish (zf) AIBP lacking the signal peptide (other, UniProt Q6DHK1 29-283, looked up)
chain: SSAASNIYSKHLTHRPTCTMANTGVKYLGQEEAQQIDEELFSDFSFSVDQLMELAGLSCATAVAKGYPVTSLLKSPARVLVICGPGNNGGDGLVCARHLKLFGYEPSVLYPKRPNKQLFQNLSIQCQKMEIPFLTEMPEADLIDEAYSLVVDAIFGFSFKGAVREPFGEILSQLKKITVPIASVDIPSGWDVEKGCPDGIQPDMLISLTAPKKSAALFKGRFHFLGGRFVPPVLEQKYQLNLPQYPGTECVFQLN
notes: mature; also called zebrafish wild type AIBP; not shown: N-terminal His-tag of the pAcHLT-C vector
B3: the binding result in experiment [3] is on record as “no binding”.

B4: cleaved His-d24 AIBP (other)
chain: GSPGLDGICSRQTIACRSGPTWWGPQRLNSGGRWDSEVMASTVVKYLSQEEAQAVDQELFNEYQFSVDQLMELAGLSCATAIAKAYPPTSMSRSPPTVLVICGPGNNGGDGLVCARHLKLFGYEPTIYYPKRPNKPLFTALVTQCQKMDIPFLGEMPAEPMTIDELYELVVDAIFGFSFKGDVREPFHSILSVLKGLTVPIASIDIPSGWDVEKGNAGGIQPDLLISLTAPKKSATQFTGRYHYLGGRFVPPALEKKYQLNLPPYPDTECVYRLQ
notes: also called putative cleavage product of His-d24 AIBP
As to B4, the binding result in experiment [4] is reported as “no binding”.
